Data on 1 molecule can be found in US6458355 (Genentech, dated 2002).

The test deals with T1, recombinant human IL-8, (ser-IL-8)72 (human, UniProt P10145 28-99).
T1 construct: mature; also called human wild type IL-8; wt IL-8
T1 sequence (looked up): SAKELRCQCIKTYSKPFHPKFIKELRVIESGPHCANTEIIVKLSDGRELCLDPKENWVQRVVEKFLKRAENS
Description: competition of 125I-IL-8 binding to human neutrophils.

B1: humanized 6G425 F(ab)-1 (Fab, V domains shown)
VH: EVQLVESGGGLVQPGGSLRLSCAASGYSFSSHYMHWVRQAPGKGLEWVGYIDPSNGETTYNQKFKGRFTISRDNSKNTLYLQMNSLRAEDTAVYYCARGDYRYNGDWFFDVWGQGT
VL: DIQMTQSPSSLSASVGDRVTITCRSSQSLVHGIGNTYLHWYQQKPGKAPKLLIYKVSNRFSGVPSRFSGSGSGTDFTLTISSLQPEDFATYYCSQSTHVPLTFGQGTKVEIKR
notes: Fab with human kappa subgroup I light and human IgG1 subgroup III heavy chain (pEMX1); CDR swap; also called version 1; V1
On to B1, for which the “fold reduction in binding affinity (against the chimeric F(ab))” value is 5.5 fold.
